Results taken from PMC10910542 (Acta Crystallographica. Section D, Structural Biology, 2024).

T1: MKvar (Ramazzottius varieornatus, UniProt A0A1D1VW28)
T1 construct: gene RvY_15762-1
T1 sequence (A0A1D1VW28 1-405): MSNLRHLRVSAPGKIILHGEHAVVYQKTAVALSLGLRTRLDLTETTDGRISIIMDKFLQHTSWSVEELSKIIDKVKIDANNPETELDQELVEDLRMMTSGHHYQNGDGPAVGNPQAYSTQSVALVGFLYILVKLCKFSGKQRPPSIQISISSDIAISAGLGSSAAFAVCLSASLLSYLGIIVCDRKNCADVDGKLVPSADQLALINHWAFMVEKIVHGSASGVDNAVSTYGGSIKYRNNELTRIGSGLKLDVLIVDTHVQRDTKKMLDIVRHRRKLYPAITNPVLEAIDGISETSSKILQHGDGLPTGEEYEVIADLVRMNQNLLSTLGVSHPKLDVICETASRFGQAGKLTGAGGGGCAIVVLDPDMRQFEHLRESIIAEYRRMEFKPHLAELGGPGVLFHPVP

T2: MKmaz (Methanosarcina mazei, UniProt Q8PW39)
T2 construct: gene mvk
T2 sequence (Q8PW39 1-301): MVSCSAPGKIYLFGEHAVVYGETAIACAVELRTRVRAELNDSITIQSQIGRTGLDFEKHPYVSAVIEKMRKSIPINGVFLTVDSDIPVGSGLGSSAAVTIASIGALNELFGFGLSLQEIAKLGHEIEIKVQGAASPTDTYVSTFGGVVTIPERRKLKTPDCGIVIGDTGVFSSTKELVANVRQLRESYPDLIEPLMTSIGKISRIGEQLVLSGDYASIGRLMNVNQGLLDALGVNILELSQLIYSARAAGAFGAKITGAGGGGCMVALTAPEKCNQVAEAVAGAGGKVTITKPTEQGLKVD


Key:
[1] = biological target: T3, MKbur (Methanococcoides burtonii, UniProt Q12TI0); assay: residual activity, coupled assay; format: biochemical; conditions: 1.5 mM mevalonate, 3 mM ATP
T3 construct: gene mvk

[2] = biological target: T1, MKvar; assay: residual activity, coupled assay; format: biochemical
[3] = biological target: T2, MKmaz; assay: residual activity, coupled assay; format: biochemical
[4] = substrate: CC(O)(CCO)CC(=O)O; assay: purified protein; conditions: 5 mM ATP, Mg2+ 10 mM, 25 °C, racemic mevalonate
[5] = substrate: Nc1ncnc2c1ncn2[C@@H]1O[C@H](COP(=O)(O)OP(=O)(O)OP(=O)(O)O)[C@@H](O)[C@H]1O; assay: purified protein; conditions: 5 mM (RS)-mevalonate, Mg2+ 10 mM, 25 °C

| remaining activity at 100 µM [2] [%] | remaining activity at 100 µM [3] [%] | Molecule | % residual activity at 100 μM [1] | Km [4] [µM] | kcat [4] [s⁻¹] | kcat/Km [4] [M⁻¹ s⁻¹] | Km [5] [µM] |
| --- | --- | --- | --- | --- | --- | --- | --- |
| < 20 | 92 | CC(C)=CCC/C(C)=C/COP(=O)(O)OP(=O)(O)O [geranyl pyrophosphate] | MKbur, like MKmaz, appears to be less sensitive to inhibition | – | – | – | – |
| 0.4 | 70 | CC(C)=CCC/C(C)=C/CC/C(C)=C/COP(=O)(O)OP(=O)(O)O [farnesyl pyrophosphate] | MKbur, like MKmaz, appears to be less sensitive to inhibition | – | – | – | – |
| – | – | MKbur (Methanococcoides burtonii DSM 6242) (protein) MITCSAPGKVYLFGEHAVVYGEPAICCAVDIRTRVTVSPADTITISSSLGTTGIDFEVHPYVSAVLERFQDISSFDGVDLRISSDIPVGSGLGSSAAVTVATIKAMDTLLDLGLELDDIAKMGHEVEQNIQGTASPTDTYVCTMGGVVLIPQRKKLELIDCGILIGNTNIFSSTKELVGNVADLNERFPDVVGPVLSSIGKLSVIGEGLVNDRDYVSVGELMNIDQGLLDAIGVSCAELSSLIYAARESGAYGSKITGAGGGGCMVAISPRENVDSVAEAIGMAGGKVVVANATDIGVRVECQ | – | 55 ± 11 | 5 | 90000 | 331 ± 63 |
| – | – | MKmaz (Methanosarcina mazei Go1) (protein) MVSCSAPGKIYLFGEHAVVYGETAIACAVELRTRVRAELNDSITIQSQIGRTGLDFEKHPYVSAVIEKMRKSIPINGVFLTVDSDIPVGSGLGSSAAVTIASIGALNELFGFGLSLQEIAKLGHEIEIKVQGAASPTDTYVSTFGGVVTIPERRKLKTPDCGIVIGDTGVFSSTKELVANVRQLRESYPDLIEPLMTSIGKISRIGEQLVLSGDYASIGRLMNVNQGLLDALGVNILELSQLIYSARAAGAFGAKITGAGGGGCMVALTAPEKCNQVAEAVAGAGGKVTITKPTEQGLKVD | – | 123 ± 9 | 10 | 81000 | 511 ± 48 |
| – | – | MKvar (Ramazzottius varieornatus) (protein) MSNLRHLRVSAPGKIILHGEHAVVYQKTAVALSLGLRTRLDLTETTDGRISIIMDKFLQHTSWSVEELSKIIDKVKIDANNPETELDQELVEDLRMMTSGHHYQNGDGPAVGNPQAYSTQSVALVGFLYILVKLCKFSGKQRPPSIQISISSDIAISAGLGSSAAFAVCLSASLLSYLGIIVCDRKNCADVDGKLVPSADQLALINHWAFMVEKIVHGSASGVDNAVSTYGGSIKYRNNELTRIGSGLKLDVLIVDTHVQRDTKKMLDIVRHRRKLYPAITNPVLEAIDGISETSSKILQHGDGLPTGEEYEVIADLVRMNQNLLSTLGVSHPKLDVICETASRFGQAGKLTGAGGGGCAIVVLDPDMRQFEHLRESIIAEYRRMEFKPHLAELGGPGVLFHPVP | – | 237 ± 68 | 5 ± 0.8 | 21000 | 4844 ± 1413 |
